# From PMC4301919, “Helical Defects in MicroRNA Influence Protein Binding by TAR RNA Binding Protein”
# B1: miR-16-1/miR-16-1* (dsRNA)
# RNA 1: UAGCAGCACGUAAAUAUUGGCG
# RNA 2: CCAGUAUUAACUGUGCUGCUGAA
# B2: A-mismatch (dsRNA)
# RNA 1: GGUCAGCACGUAAAUAUUGUCC
# RNA 2: GGACAGUAUUAACGUGCUGUAC
# B3: U-bulge (dsRNA)
# RNA 1: GGUCAGCACGUAAAUAUUGUCC
# RNA 2: GGACAGUAUUUACUGUGCUGAUC
# B4: ds22 (dsRNA)
# RNA 1: GUCAGCAGUGCCUUAGCAGCAC
# RNA 2: GUGCUGCUAAGGCACUGCUGAC
# B5: ds12 (dsRNA)
# RNA 1: GUCAGCAGUGCC
# RNA 2: GGCACUGCUGAC
# B6: pre-mir-16-1 (structured_RNA)
# RNA: UAGCAGCACGUAAAUAUUGGCGUUAAGAUUCUAAAAUUAUCUCCAGUAUUAACUGUGCUGCUGAA
# B7: ds33 (dsRNA)
# RNA 1: GGUCAGCAGUGCCUUAGCAGCACGUAAAUAUGG
# RNA 2: CCAUAUUUACGUGCUGCUAAGGCACUGCUGACC
# B8: ds16 (dsRNA)
# RNA 1: GUCAGCAGUGCCUUAG
# RNA 2: CUAAGGCACUGCUGAC
# B9: ds44 (dsRNA)
# RNA 1: GGUCAGCAGUGCCUUAGCAGCACGUAAAUAUUGGCGUUAAGACC
# RNA 2: GGUCUUAACGCCAAUAUUUACGUGCUGCUAAGGCACUGCUGACC
# What was measured:
# [1] = target: T1, TRBP-ΔC (UniProt Q15633-2 9-215); experiment: EMSA; apparent Kd; nH 1.1; text gives error 0.1; 50 mM sodium cacodylate pH 7.0, 50 mM potassium glutamate, 5% glycerol; EMSA 0.5 pM RNA, 30 min at room temperature, gel 0.25X TBE at 10 C; CD at 10 C with 5-15 uM RNA; details: protein: recombinant; label: 5'-32P top strand; imperfect duplex with U-bulge and A-A mismatch
# T1 sequence: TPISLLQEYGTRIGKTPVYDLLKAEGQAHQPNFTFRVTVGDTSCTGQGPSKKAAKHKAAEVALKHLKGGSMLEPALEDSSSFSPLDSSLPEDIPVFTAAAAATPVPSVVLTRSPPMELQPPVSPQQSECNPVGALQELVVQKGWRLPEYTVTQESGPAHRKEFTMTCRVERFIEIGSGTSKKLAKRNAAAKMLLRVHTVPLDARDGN
# [2] = target: T2, TRBP-dsRBD2 (UniProt Q15633-2 139-215); experiment: EMSA; apparent Kd; nH >2; text says bound; 50 mM sodium cacodylate pH 7.0, 50 mM potassium glutamate, 5% glycerol; EMSA 0.5 pM RNA, 30 min at room temperature, gel 0.25X TBE at 10 C; CD at 10 C with 5-15 uM RNA; details: protein: recombinant, label: 5'-32P, hairpin, 16 bp stem
# T2 sequence: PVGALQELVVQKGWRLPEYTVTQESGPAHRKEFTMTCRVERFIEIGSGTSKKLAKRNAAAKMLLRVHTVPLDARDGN
# [3] = target: T3, TRBP-dsRBD1 (UniProt Q15633-2 9-85); experiment: EMSA; apparent Kd; nH 1.0; 50 mM sodium cacodylate pH 7.0, 50 mM potassium glutamate, 5% glycerol; EMSA 0.5 pM RNA, 30 min at room temperature, gel 0.25X TBE at 10 C; CD at 10 C with 5-15 uM RNA; details: protein: recombinant, label: 5'-32P, hairpin, 16 bp stem
# T3 sequence: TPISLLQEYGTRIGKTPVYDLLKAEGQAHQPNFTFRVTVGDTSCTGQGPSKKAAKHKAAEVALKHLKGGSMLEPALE
# [4] = target: T1, TRBP-ΔC; experiment: EMSA; apparent Kd; nH 3.1; 50 mM sodium cacodylate pH 7.0, 50 mM potassium glutamate, 5% glycerol; EMSA 0.5 pM RNA, 30 min at room temperature, gel 0.25X TBE at 10 C; CD at 10 C with 5-15 uM RNA; details: protein: recombinant; label: 5'-32P; hairpin, 16 bp stem, U6 loop
# [5] = target: T1, TRBP-ΔC; experiment: EMSA; apparent Kd; nH 2.7; 50 mM sodium cacodylate pH 7.0, 50 mM potassium glutamate, 5% glycerol; EMSA 0.5 pM RNA, 30 min at room temperature, gel 0.25X TBE at 10 C; CD at 10 C with 5-15 uM RNA; details: protein: recombinant; label: 5'-32P top strand; duplex with 1x1 A-A mismatch
# [6] = target: T1, TRBP-ΔC; experiment: EMSA; apparent Kd; nH 5; 50 mM sodium cacodylate pH 7.0, 50 mM potassium glutamate, 5% glycerol; EMSA 0.5 pM RNA, 30 min at room temperature, gel 0.25X TBE at 10 C; CD at 10 C with 5-15 uM RNA; details: protein: recombinant; label: 5'-32P top strand; duplex with 1-nt U-bulge
# [7] = target: T2, TRBP-dsRBD2; experiment: EMSA; apparent Kd; nH 2.7; 50 mM sodium cacodylate pH 7.0, 50 mM potassium glutamate, 5% glycerol; EMSA 0.5 pM RNA, 30 min at room temperature, gel 0.25X TBE at 10 C; CD at 10 C with 5-15 uM RNA; details: protein: recombinant
# [8] = target: T1, TRBP-ΔC; experiment: EMSA; apparent Kd; nH 4; 50 mM sodium cacodylate pH 7.0, 50 mM potassium glutamate, 5% glycerol; EMSA 0.5 pM RNA, 30 min at room temperature, gel 0.25X TBE at 10 C; CD at 10 C with 5-15 uM RNA; details: protein: recombinant; label: 5'-32P top strand (EMSA); blunt
# [9] = target: T3, TRBP-dsRBD1; experiment: EMSA; apparent Kd; nH 1.5; 50 mM sodium cacodylate pH 7.0, 50 mM potassium glutamate, 5% glycerol; EMSA 0.5 pM RNA, 30 min at room temperature, gel 0.25X TBE at 10 C; CD at 10 C with 5-15 uM RNA; details: protein: recombinant; label: 5'-32P top strand (EMSA); blunt
# [10] = target: T1, TRBP-ΔC; experiment: EMSA; apparent Kd; nH 1.9; 50 mM sodium cacodylate pH 7.0, 50 mM potassium glutamate, 5% glycerol; EMSA 0.5 pM RNA, 30 min at room temperature, gel 0.25X TBE at 10 C; CD at 10 C with 5-15 uM RNA; details: protein: recombinant; label: 5'-32P top strand (EMSA); blunt
# [11] = target: T1, TRBP-ΔC; experiment: EMSA; apparent Kd; nH 1.6; 50 mM sodium cacodylate pH 7.0, 50 mM potassium glutamate, 5% glycerol; EMSA 0.5 pM RNA, 30 min at room temperature, gel 0.25X TBE at 10 C; CD at 10 C with 5-15 uM RNA; details: protein: recombinant; label: 5'-32P; hairpin with 1-nt U-bulge and A-A mismatch
# [12] = target: T3, TRBP-dsRBD1; experiment: EMSA; apparent Kd; nH 2.9; 50 mM sodium cacodylate pH 7.0, 50 mM potassium glutamate, 5% glycerol; EMSA 0.5 pM RNA, 30 min at room temperature, gel 0.25X TBE at 10 C; CD at 10 C with 5-15 uM RNA; details: protein: recombinant; label: 5'-32P top strand (EMSA); blunt
# [13] = target: T2, TRBP-dsRBD2; experiment: EMSA; apparent Kd; nH 3.1; 50 mM sodium cacodylate pH 7.0, 50 mM potassium glutamate, 5% glycerol; EMSA 0.5 pM RNA, 30 min at room temperature, gel 0.25X TBE at 10 C; CD at 10 C with 5-15 uM RNA; details: protein: recombinant; label: 5'-32P top strand (EMSA); blunt
# [14] = target: T1, TRBP-ΔC; experiment: EMSA; apparent Kd; nH >12; 50 mM sodium cacodylate pH 7.0, 50 mM potassium glutamate, 5% glycerol; EMSA 0.5 pM RNA, 30 min at room temperature, gel 0.25X TBE at 10 C; CD at 10 C with 5-15 uM RNA; details: protein: recombinant; label: 5'-32P top strand (EMSA); blunt
# [15] = target: T1, TRBP-ΔC; experiment: EMSA; apparent Kd; nH 3.2 (1.4 in loop section); 50 mM sodium cacodylate pH 7.0, 50 mM potassium glutamate, 5% glycerol; EMSA 0.5 pM RNA, 30 min at room temperature, gel 0.25X TBE at 10 C; CD at 10 C with 5-15 uM RNA; details: protein: recombinant; label: 5'-32P top strand (EMSA); blunt
# [16] = target: T1, TRBP-ΔC; experiment: EMSA; apparent Kd; nH 1.1; 50 mM sodium cacodylate pH 7.0, 50 mM potassium glutamate, 5% glycerol; EMSA 0.5 pM RNA, 30 min at room temperature, gel 0.25X TBE at 10 C; CD at 10 C with 5-15 uM RNA; details: protein: recombinant; label: 5'-32P; hairpin, 16 bp stem, UUCG loop
# [17] = target: T2, TRBP-dsRBD2; experiment: EMSA; apparent Kd; nH 2.4; 50 mM sodium cacodylate pH 7.0, 50 mM potassium glutamate, 5% glycerol; EMSA 0.5 pM RNA, 30 min at room temperature, gel 0.25X TBE at 10 C; CD at 10 C with 5-15 uM RNA; details: protein: recombinant; label: 5'-32P; hairpin, 16 bp stem, UUCG loop
# [18] = target: T3, TRBP-dsRBD1; experiment: EMSA; apparent Kd; nH 1.3; 50 mM sodium cacodylate pH 7.0, 50 mM potassium glutamate, 5% glycerol; EMSA 0.5 pM RNA, 30 min at room temperature, gel 0.25X TBE at 10 C; CD at 10 C with 5-15 uM RNA; details: protein: recombinant, label: 5'-32P, hairpin, 16 bp stem
# [19] = target: T1, TRBP-ΔC; experiment: EMSA; apparent Kd; nH 4.1; 50 mM sodium cacodylate pH 7.0, 50 mM potassium glutamate, 5% glycerol; EMSA 0.5 pM RNA, 30 min at room temperature, gel 0.25X TBE at 10 C; CD at 10 C with 5-15 uM RNA; details: protein: recombinant; label: 5'-32P; hairpin, 16 bp stem, U4 loop
# [20] = target: T1, TRBP-ΔC; experiment: EMSA; apparent Kd; nH 2.5; 50 mM sodium cacodylate pH 7.0, 50 mM potassium glutamate, 5% glycerol; EMSA 0.5 pM RNA, 30 min at room temperature, gel 0.25X TBE at 10 C; CD at 10 C with 5-15 uM RNA; details: protein: recombinant; label: 5'-32P; hairpin, 16 bp stem, U8 loop
# [21] = target: T1, TRBP-ΔC; experiment: EMSA; apparent Kd; nH >14; 50 mM sodium cacodylate pH 7.0, 50 mM potassium glutamate, 5% glycerol; EMSA 0.5 pM RNA, 30 min at room temperature, gel 0.25X TBE at 10 C; CD at 10 C with 5-15 uM RNA; details: protein: recombinant; label: 5'-32P top strand (EMSA); blunt
# [22] = target: T3, TRBP-dsRBD1; experiment: EMSA; apparent Kd; nH 2.6; 50 mM sodium cacodylate pH 7.0, 50 mM potassium glutamate, 5% glycerol; EMSA 0.5 pM RNA, 30 min at room temperature, gel 0.25X TBE at 10 C; CD at 10 C with 5-15 uM RNA; details: protein: recombinant; label: 5'-32P top strand (EMSA); blunt
# [23] = target: T2, TRBP-dsRBD2; experiment: EMSA; apparent Kd; nH 4.3; 50 mM sodium cacodylate pH 7.0, 50 mM potassium glutamate, 5% glycerol; EMSA 0.5 pM RNA, 30 min at room temperature, gel 0.25X TBE at 10 C; CD at 10 C with 5-15 uM RNA; details: protein: recombinant; label: 5'-32P top strand (EMSA); blunt
binder,measurement,setting,value
B1,Kd,[1],1.1 ± 0.01 µM
GUCAGCAGUGCCUUAGUUUUUUCUAAGGCACUGCUGAC (structured_RNA) [ds16-hexa-U],Kd,[2]; U6 loop,> 4 µM
same,Kd,[3]; U6 loop,10 ± 3 µM
same,Kd,[4],0.61 ± 0.05 µM
B2,Kd,[5],1.78 ± 0.08 µM
B3,Kd,[6],0.3 ± 0.03 µM
B4,Kd,"[7]; label: 5'-32P top strand (EMSA), blunt",1.7 ± 0.1 µM
same,Kd,[8],0.6 ± 0.05 µM
same,Kd,[9],3.5 ± 0.2 µM
B5,Kd,[10],2 ± 0.3 µM
B6,Kd,[11],0.61 ± 0.02 µM
B7,Kd,[12],0.9 ± 0.3 µM
same,Kd,[13],1 ± 0.08 µM
same,Kd,[14],0.2 ± 0.02 µM
B8,Kd,[15],0.8 ± 0.07 µM
GUCAGCAGUGCCUUAGUUCGCUAAGGCACUGCUGAC (structured_RNA) [ds16-tetra-stable],Kd,[16],0.5 ± 0.05 µM
same,Kd,[17],5 ± 0.7 µM
same,Kd,[18]; UUCG loop,9 ± 1 µM
GUCAGCAGUGCCUUAGUUUUCUAAGGCACUGCUGAC (structured_RNA) [ds16-tetra-U],Kd,[19],0.7 ± 0.05 µM
same,Kd,[3]; U4 loop,7 ± 0.9 µM
same,Kd,"[7]; label: 5'-32P, hairpin, 16 bp stem, U4 loop",4 ± 0.9 µM
GUCAGCAGUGCCUUAGUUUUUUUUCUAAGGCACUGCUGAC (structured_RNA) [ds16-octa-U],Kd,[2]; U8 loop,> 6 µM
same,Kd,[18]; U8 loop,8 ± 3 µM
same,Kd,[20],0.41 ± 0.05 µM
B9,Kd,[21],0.06 ± 0.01 µM
same,Kd,[22],0.8 ± 0.05 µM
same,Kd,[23],0.8 ± 0.06 µM
